The target in one assay is T1, arrestin2^1-393 (human).
T1 chain: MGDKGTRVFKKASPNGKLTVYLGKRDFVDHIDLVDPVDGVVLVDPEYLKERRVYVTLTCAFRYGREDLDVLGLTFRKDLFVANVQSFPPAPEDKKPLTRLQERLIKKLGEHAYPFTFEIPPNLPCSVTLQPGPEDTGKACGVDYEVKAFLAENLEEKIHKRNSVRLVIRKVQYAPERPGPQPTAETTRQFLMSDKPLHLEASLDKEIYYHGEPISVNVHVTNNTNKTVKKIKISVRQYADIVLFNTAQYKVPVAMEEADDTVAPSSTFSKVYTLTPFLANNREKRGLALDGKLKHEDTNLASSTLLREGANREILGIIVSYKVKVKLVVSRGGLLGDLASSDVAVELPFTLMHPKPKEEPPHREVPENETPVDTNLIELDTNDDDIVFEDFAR
As to the kind of experiment: NMR titration.

Assay [1] deals with T2, arrestin2^1-418 (C150L, C242V, C251V, C269S) (human).
T2 chain: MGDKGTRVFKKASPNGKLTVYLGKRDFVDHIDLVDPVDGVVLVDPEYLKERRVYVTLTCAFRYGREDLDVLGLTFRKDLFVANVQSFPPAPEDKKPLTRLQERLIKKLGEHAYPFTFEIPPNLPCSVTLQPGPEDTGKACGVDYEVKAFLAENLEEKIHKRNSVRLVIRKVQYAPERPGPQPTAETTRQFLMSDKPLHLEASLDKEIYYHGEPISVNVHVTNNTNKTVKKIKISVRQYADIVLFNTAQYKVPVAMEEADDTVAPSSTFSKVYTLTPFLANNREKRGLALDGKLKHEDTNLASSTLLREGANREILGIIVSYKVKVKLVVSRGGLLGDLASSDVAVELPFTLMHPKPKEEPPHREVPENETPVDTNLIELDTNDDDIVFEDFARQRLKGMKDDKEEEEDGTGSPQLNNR
Description: SEC. (In general: In gel filtration, larger molecules generally elute earlier.)

Another assay concerns the target T3, arrestin2^1-359 (human).
T3 chain: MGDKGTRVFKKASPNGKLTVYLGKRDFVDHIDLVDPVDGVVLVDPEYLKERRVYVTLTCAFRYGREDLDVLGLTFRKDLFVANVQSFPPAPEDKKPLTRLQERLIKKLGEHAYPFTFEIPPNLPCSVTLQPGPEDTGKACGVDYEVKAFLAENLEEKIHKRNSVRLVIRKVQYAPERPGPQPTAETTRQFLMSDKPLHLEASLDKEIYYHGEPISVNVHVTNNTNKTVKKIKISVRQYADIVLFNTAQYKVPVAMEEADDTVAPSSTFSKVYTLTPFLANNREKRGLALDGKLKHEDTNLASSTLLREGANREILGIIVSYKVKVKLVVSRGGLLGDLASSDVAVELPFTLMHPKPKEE
As to the kind of experiment: crystal structure.

No end group written: not given here. Some results are limits rather than exact numbers.

One may read the Kd as the free concentration of one partner at which half of the binding sites on the other are occupied at equilibrium, for simple one-to-one binding. Read a low Kd as higher affinity. Molecule APERASSVYTRSTGEQEISVGL (also: five-fold phosphorylated, lacking pT343, sites not given here) [CCR5 5P1 phosphopeptide] returned a Kd with arrestin2^1-393 of 147 ± 7 µM. Take APERASSVYTRSTGEQEISVGL (also: phosphopeptide (3P2), sites not given here) [CCR5 3P2 phosphopeptide]: the binding result in assay [1] was “binds”. For the same molecule, in the assay with arrestin2^1-393, the Kd is greater than 100 µM and the “fold lower affinity (than 6P or V2Rpp)” value is greater than 4 fold. In the assay with arrestin2^1-393, APERASSVYTRSTGEQEISVGL (also: three-fold phosphorylated, sites not given here) [CCR5 3P1 phosphopeptide] registered a dissociation constant (Kd) greater than 100 µM.

B1: CCR5 5P2 phosphopeptide (peptide)
peptide: APERASSVYTRSTGEQEISVGL
modifications: not fully specified; five-fold phosphorylated; comprising pT343; whole pattern in Figure 1C
B1 returned a Kd with arrestin2^1-393 of 54 ± 6 µM. Turning to APERASSVYTRSTGEQEISVGL (also: phosphopeptide (6P), sites not given here) [CCR5 6P phosphopeptide], the binding result (with arrestin2^1-359; in assay [1]) was “binds” throughout. The molecule also displayed a Kd in the assay with arrestin2^1-393 of 45 ± 6 µM. For APERASSVYTRSTGEQEISVGL (also: phosphopeptide (4P), sites not given here) [CCR5 4P phosphopeptide], the binding result with arrestin2^1-359 is “binds”. For the same molecule, the equilibrium dissociation constant (Kd) with arrestin2^1-393 is greater than 100 µM.
